Assay results as given in patent US20230112035A1 (AstraZeneca / MedImmune, published 2023).
Where two headings read alike, the source gives them in different places. Each block holds one binder with its values, some of them ahead of it.

Assays:
[1] = target: human αvβ8 integrin expressed on cells and in tissue (human, UniProt P06756 31-1048; P26012 43-769); experiment: cell-based or functional assay
[2] = target: T1, recombinantly produced αvβ8 integrin protein (UniProt P06756 31-992; P26012 43-684)
T1 chain 1: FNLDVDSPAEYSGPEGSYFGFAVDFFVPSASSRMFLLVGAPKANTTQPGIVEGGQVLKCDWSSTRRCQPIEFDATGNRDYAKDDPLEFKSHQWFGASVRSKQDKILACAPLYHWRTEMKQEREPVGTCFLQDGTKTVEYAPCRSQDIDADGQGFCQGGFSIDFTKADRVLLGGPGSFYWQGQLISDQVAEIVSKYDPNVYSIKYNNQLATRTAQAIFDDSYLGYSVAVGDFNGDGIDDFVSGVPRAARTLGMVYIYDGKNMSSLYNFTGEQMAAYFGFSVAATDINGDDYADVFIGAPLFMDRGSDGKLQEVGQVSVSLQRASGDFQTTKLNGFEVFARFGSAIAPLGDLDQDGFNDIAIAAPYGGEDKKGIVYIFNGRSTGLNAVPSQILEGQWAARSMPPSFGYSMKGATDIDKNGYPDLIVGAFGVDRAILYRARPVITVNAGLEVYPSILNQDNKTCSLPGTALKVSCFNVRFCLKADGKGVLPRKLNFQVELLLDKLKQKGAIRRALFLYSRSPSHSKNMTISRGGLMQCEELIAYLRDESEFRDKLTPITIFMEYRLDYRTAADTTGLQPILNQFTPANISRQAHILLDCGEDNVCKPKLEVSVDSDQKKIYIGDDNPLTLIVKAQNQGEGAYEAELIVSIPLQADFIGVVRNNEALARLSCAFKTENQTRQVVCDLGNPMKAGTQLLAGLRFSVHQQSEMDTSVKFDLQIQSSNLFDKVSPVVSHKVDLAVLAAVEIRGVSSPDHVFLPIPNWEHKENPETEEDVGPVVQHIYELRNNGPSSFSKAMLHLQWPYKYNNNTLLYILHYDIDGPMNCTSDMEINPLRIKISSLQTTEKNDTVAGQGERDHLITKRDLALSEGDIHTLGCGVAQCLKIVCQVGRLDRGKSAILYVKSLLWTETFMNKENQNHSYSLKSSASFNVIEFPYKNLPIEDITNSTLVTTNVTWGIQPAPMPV
T1 chain 2: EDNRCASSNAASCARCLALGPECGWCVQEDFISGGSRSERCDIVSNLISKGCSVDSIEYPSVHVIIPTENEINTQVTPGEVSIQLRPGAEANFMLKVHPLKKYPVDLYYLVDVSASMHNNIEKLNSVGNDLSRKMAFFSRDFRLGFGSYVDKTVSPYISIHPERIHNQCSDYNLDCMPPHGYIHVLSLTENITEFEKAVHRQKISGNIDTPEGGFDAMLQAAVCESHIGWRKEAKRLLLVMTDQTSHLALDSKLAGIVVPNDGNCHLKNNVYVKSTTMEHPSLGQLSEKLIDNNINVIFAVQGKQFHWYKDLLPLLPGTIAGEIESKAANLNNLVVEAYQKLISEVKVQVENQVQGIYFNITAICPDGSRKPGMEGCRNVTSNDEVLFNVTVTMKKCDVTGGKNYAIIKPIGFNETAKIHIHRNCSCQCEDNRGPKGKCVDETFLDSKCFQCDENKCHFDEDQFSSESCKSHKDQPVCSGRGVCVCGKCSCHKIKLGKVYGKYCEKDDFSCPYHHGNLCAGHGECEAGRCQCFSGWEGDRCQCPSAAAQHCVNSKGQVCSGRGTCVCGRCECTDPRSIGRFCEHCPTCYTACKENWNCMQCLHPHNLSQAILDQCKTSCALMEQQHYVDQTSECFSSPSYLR

[3] = target: T1, recombinantly produced αvβ8 integrin …; experiment: Biacore; value is an estimate
[4] = target: T2, recombinantly produced αvβ8 integrin protein (human, UniProt P06756 31-992; P26012 43-684); experiment: ELISA screening of position 94 mutants
T2 construct: Protein coated on ELISA plates and used in Biacore; also called integrin αvβ8

[5] = target: T1, recombinantly produced αvβ8 integrin …; experiment: Biacore

- SMAD2/3 phosphorylation in kidney lysates of humanized αvβ8 transgenic mice after UUO (ELISA) [1]: 1.6 fold
- Kd [2]: 0.166 nM
B1: B5-15 humanized and affinity optimized anti-αvβ8 integrin antibody (antibody, V domains shown)
VH: EVQLVESGGGLVQPGGSLRLSCAVSGFVFSRSWISWVRQAPGKGLEWIGEINPDSSTINYTSSLKDRFTISRDNAKNSLYLQMNSLRAEDTAVYYCAILITTEDYWGQGTTVTVSS
VL: DIQLTQSPSSLSASVGDRVTITCKASQDINKYLSWFQQKPGKAPKSLIYYANRLVDGVPSRFSGSGSGTDFTLTISSLQPEDFATYYCLQYDVFPYTFGGGTKVEIK

- Kd [3]: ~490 nM
B2: hu37E1B5 anti-αvβ8 integrin antibody (UCSF humanized sequence of WO 2013/026004) (antibody, V domains shown)
VH: EVQLVESGGGLVQPGGSLRLSCAVSGFVFSRYWMSWVRQAPGKGLEWIGEINPDSSTINYTSSLKDRFTISRDNAKNSLYLQMNSLRAEDTAVYYCASLITTEDYWGQGTTVTVSS
VL: EIVLTQSPSSLSLSPGERVTITCKASQDINSYLSWYQQKPGKAPKLLIYYANRLVDGVPARFSGSGSGQDYTLTISSLEPEDFAVYYCLQYDEFPYTFGGGTKLEIK

- fold reduction in αvβ8 binding affinity (against MEDI-hu37E1B5 with Cys 94) [4]: ~3 fold
B3: MEDI-hu37E1B5-C94I mutant antibody (antibody, V domains shown)
VH: EVQLVESGGGLVQPGGSLRLSCAVSGFVFSRYWMSWVRQAPGKGLEWIGEINPDSSTINYTSSLKDRFTISRDNAKNSLYLQMNSLRAEDTAVYYCAILITTEDYWGQGTTVTVSS
VL: DIQLTQSPSSLSASVGDRVTITCKASQDINSYLSWFQQKPGKAPKSLIYYANRLVDGVPSRFSGSGSGTDFTLTISSLQPEDFATYYCLQYDEFPYTFGGGTKVEIK
notes: IgG; also called humanized anti-αvβ8 integrin antibody C94I

- Kd [2]: 0.5 nM
- Kd [5]: 0.5 nM
B4: Chi-37E1B5 chimeric anti-αvβ8 integrin antibody (antibody, V domains shown)
VH: EVQLVESGGGLVQPGGSLNLSCAVSGFVFSRYWMSWVRQAPGKGLEWIGEINPDSSTINYTSSLKDKFIISRDNAKNTLYLQMNKVRSEDTALYYCACLITTEDYWGQGTSVTVSS
VL: EIVLTQSPSSMYASLGERVTIPCKASQDINSYLSWFQQKPGKSPKTLIYYANRLVDGVPSRFSGSGSGQDYSLTISSLEYEDMGIYYCLQYDEFPYTFGGGTKLEIK
